# According to PMC5494301, “Functions of tryptophan residues in EWGWS insert of Plasmodium falciparum enolase” (FEBS Open Bio, 2017):
# Where a chain is given by its changes, count along the chain named.
# B1: W105,107A variant of recombinant P. falciparum enolase, GST tag removed (enzyme, Plasmodium falciparum, UniProt Q27727 1-446, looked up)
# chain: MAHVITRINAREILDSRGNPTVEVDLETNLGIFRAAVPSGASTGIYEALELRDNDKSRYLGKGVQKAIKNINEIIAPKLIGMNCTEQKKIDNLMVEELDGSKNEAGASKSKLGANAILAISMAVCRAGAAPNKVSLYKYLAQLAGKKSDQMVLPVPCLNVINGGSHAGNKLSFQEFMIVPVGAPSFKEALRYGAEVYHTLKSEIKKKYGIDATNVGDEGGFAPNILNANEALDLLVTAIKSAGYEGKVKIAMDVAASEFYNSENKTYDLDFKTPNNDKSLVKTGAQLVDLYIDLVKKYPIVSIEDPFDQDDWENYAKLTAAIGKDVQIVGDDLLVTNPTRITKALEKNACNALLLKVNQIGSITEAIEACLLSQKNNWGVMVSHRSGETEDVFIADLVVALRTGQIKTGAPCRSERNAKYNQLLRIEESLGNNAVFAGEKFRLQLN
# B2: recombinant P. falciparum enolase, wild type (WT‐rPfeno), GST tag removed (enzyme, Plasmodium falciparum, UniProt Q27727 1-446, looked up)
# chain: B1 chain with A105W, A107W
# notes: Plasmodium falciparum enolase (Pfeno), UniProt Q27727, 446 amino acids; also called Plasmodium falciparum enolase; source: E. coli BL21 (DE3), pGEX4T1, purified on glutathione Sepharose, GST tag cut off with thrombin
# Experiments:
# [1] = biological target: GST‐tagged W105,107K variant of recombinant P. falciparum enolase (not stated | Plasmodium falciparum); assay: SEC; proteins with the GST tag; Superdex‐200 Increase 10/300 GL, 1 mg protein in 0.5 mL buffer; 50 mM Tris‐HCl, 150 mM NaCl, 5 mM MgCl2 pH 7.5
# [2] = biological target: GST‐tagged W105,107K variant of recombinant P. falciparum enolase (not stated | Plasmodium falciparum)
# [3] = biological target: GST‐tagged W105,107A variant of recombinant P. falciparum enolase (not stated | Plasmodium falciparum); assay: SEC; proteins with the GST tag; Superdex‐200 Increase 10/300 GL, 1 mg protein in 0.5 mL buffer; 50 mM Tris‐HCl, 150 mM NaCl, 5 mM MgCl2 pH 7.5
# [4] = biological target: GST‐tagged W105,107A variant of recombinant P. falciparum enolase (not stated | Plasmodium falciparum)
# [5] = biological target: the molecule itself; assay: cell-based or functional assay
# [6] = biological target: the molecule itself; assay: SEC; proteins without the GST tag; Superdex‐200 HiLoad 16/600, 1–2 mg of protein in 2 mL buffer; 50 mM Tris‐HCl, 150 mM NaCl, 5 mM MgCl2 pH 7.5; dimer to monomers
molecule,measurement,setting,value
"GST‐tagged W105,107K variant of recombinant P. falciparum enolase (enzyme)",stoichiometry N,[1],2
same,"enolase activity, V max (% of GST‐rPfeno) (% of GST‐rPfeno)",[2],33
"GST‐tagged W105,107A variant of recombinant P. falciparum enolase (enzyme)",stoichiometry N,[3],2
same,"enolase activity, V max (% of GST‐rPfeno) (% of GST‐rPfeno)",[4],22
B1,"enolase activity, V max (% WT rPfeno)",[5],4 % of WT‐rPfeno
B2,stoichiometry N,[6],2
